{"source": "paper PMC7587441", "about": "“Plasmodium falciparum Apicomplexan-Specific Glucosamine-6-Phosphate N-Acetyltransferase Is Key for Amino Sugar Metabolism and Asexual Blood Stage Development” (mBio, 2020)", "proteins": {"B1": {"name": "CpGNA1 (Cryptosporidium parvum Iowa II) (protein)", "chain": "MISSFEVRKATIDDYFELRNLICDVTRCTETLSREQAEERFRYNTYHPYCLVDTENGRIVGYAGFYIIPHLGRKNDSRIEHVIISKEYRNRGLGRLLCKQIIEDAKNKFNCGRIDLTVESHIAKKLYSSLEFEKVNTEVMRNSFLDLTPKSD", "notes": "N-terminal GST tag kept (not cleaved), pGEX-6P-1, codon-optimized"}}, "substrate": "CC(=O)SCCNC(=O)CCNC(=O)[C@H](O)C(C)(C)COP(=O)(O)OP(=O)(O)OC[C@H]1O[C@@H](n2cnc3c(N)ncnc32)[C@H](O)[C@@H]1OP(=O)(O)O", "assay": "DTNB colorimetric assay of CoA release", "assay_type": "biochemical, Cryptosporidium parvum", "conditions": "2000 μM GlcN6P fixed, 25 mM Tris-HCl, 150 mM NaCl, pH 7.2, room temperature", "excerpt": "DTNB colorimetric assay of CoA release on CpGNA1", "data": [{"protein": "B1", "values": [{"measurement": "Km", "value": "531 ± 80.33", "unit": "µM"}]}]}
